Literature values, collected in publication PMC8657489, “Identification of VEGF Signaling Inhibition-Induced Glomerular Injury in Rats through Site-Specific Urinary Biomarkers” (International Journal of Molecular Sciences, 2021).

What was measured:
[1] = system: patients; conditions: human, in vivo
[2] = system: patients; set-up: method as in PMID 24574832; conditions: patients receiving Sunitinib
[3] = system: glomerular endothelial cells and podocytes; set-up: method as in PMID 17726104; conditions: rats

Molecule: Bevacizumab: monoclonal antibody against VEGF-A, also known as Avastin
- patients who developed proteinuria [1]: 21~64%
- proteinuria considered severe cases (grade 3–4) [1]: 2.1–11.9%

Molecule: CCN(CC)CCNC(=O)c1c(C)[nH]c(/C=C2\C(=O)Nc3ccc(F)cc32)c1C [Sunitinib]
- renal adverse effects [2]: proteinuria and renal insufficiency were reported

Molecule: COc1cc2c(Nc3ccc(Br)cc3F)ncnc2cc1OCC1CCN(C)CC1 [vandetanib]
- glomerular morphological changes [3]: not only the loss of fenestration in glomerular endothelial cells, but also morphological changes in podocytes
